Assay results reported in the nanobody polyreactivity screen of Harvey et al. (2022).

Assay: yeast display, Sf9 membrane polyspecificity reagent, FACS + sequencing; frameworks hold sequencing errors
Procedure, shortened: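 Sorting gates, low and high (top ~1%), were placed on anti-HA fluorescence to track expression and on streptavidin fluorescence to track reagent binding. A clone's polyreactivity label is taken from the gate it came out of. The reagent was 10% biotinylated, detergent-solubilized Sf9 membrane, applied for 1 hour at 4 °C to galactose-induced yeast display cells.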

Sequence | polyreactivity (PSR sort gate)
QVQLVETGGGLVQARGSLRLSSAASGFIFDENAMGWYRQAPGKERELVAAITSGGGSTYYADSVKGRFTISRDNAKNTVYFQMNSQNPEDTAVYYCNAVPTQHDEFDYWGQGTQVTVSS | low polyreactivity
QVQLVESGGGLVQAGGSLRLSCAASGRTFRRYFMGWYRQAPGKERELVAAISGGGGSTYYAGSVKGRFTISRDNAKNTVYLQMNSLKPEDTAVYYCAARIGWYQYWGYPTSYGYWGQGTQVTVSS | high polyreactivity
QVQLVESGGGLVQAGGSLRLSCAASGSTYYRYDMGWYRQAPGKERELCAAINWNGGTTYYADSVKGRFTISRDNAKNNVYLQMNSLKPEDTAVYYCTARSNSYVYPRLYNYWGQGTQVTVSS | high polyreactivity
QVQLVESGGGLVQAGGSLRLSCAASGSTFSRYAMGWYRQAPGKERELVAAISSSGGSTYYADSVKGRFTISRDNAKNTVYLQMNSLKPEDTAVYYCAARIWRTRRYDYWGQGTQVTVSS | high polyreactivity
QVQLVESGGGLVQAGGSLRLSCAASGLTFEVYAMGWYRQAPGKERELVAAISSGGGSTYYADSVKGRFTISRDNAKYTVYLQMNSLKPEDSAVYYCNAVAKLYYWRYDYWGQGTQVTVSS | low polyreactivity
QVQLVESGGGLDQAGGSLRLSCAASASTFYANAMGWYRQSPGKEREFVAAIDWSGATTYYADSVKGRFTISRDNAMNTVYLQMNSLKPEDTAVYYCAAEVYFLATGTWYDYWGLGTQVTVSS | high polyreactivity
QVQLVESGGGLVQAGGSLRLSCAASGSIFSRNAMGWSRPAPGKERELVAAISWSGGRKYYADSVKGRFTISRDNAKNTVYLQMNSLKPEDTAVYYCAAKVGYLAAYGRIRVYRYGYWGQGTQVTVSS | high polyreactivity
QVQLVESGGGLVQAGGSLRLSCAASGSTFEANAMGWYRQAPGKERELVAVITWTGGSTYYADSVKGRFTISRDNAKNTVYLQMNSLKPEDTAVDYCAADGVVPGRFFWPAHEYDYWGQGTQVTVSS | low polyreactivity
QVQLVESGGGLVQAGGSLRLSCAASGSIFVEYAMGWYRQAPGKERELVAGISSGGITSYADSVKGRFTISRDNAKNTVYLQMNSLKPEDTAGYYCATDPYKWFYSSYYLLQEVEYWGQGTQVTVSS | low polyreactivity
QVQLVESGGGLVQAGGSLRLSCAASGRTLVYYAMGWYRQAPGKERELVAAITWRGGRTYYADSVKGRFTISRDNAKNTVYLQMNSLKPEDTAVYYCAKDGGHTGDYWGQGTQVTVSS | low polyreactivity
QVQLVESGGGLVQAGGSLRLSCAASGRIFDHYAMGWYRQAPGKERELVAAITRSGGITYYADSVKGRFTISRDNAKNTVYLQMNSLKPEDTAVYYCAALSYRYTDKFDYWGQGTQVTVSS | low polyreactivity
QVQLVESGGGLVQAGGSLRLSCAASGFTFGSNAMGWYRQAPGKERELVAAISYSGTRTYYADSVKGRFTISRDNAKNTVYLQMNRLKPEDTAVNYCAAGFRKTQFNVRYDYWGQGTQVTVSS | high polyreactivity
QVQLVESGGGLVQAGGSLRLSCAASGRTLGGNAMGWYRQAPGKERELVAAITNSASTYADSVKGRFTISRDNAKNSVYLQMNSLKPEDTAVYYCNAPVPSDQHGDYWGQGTQVTVSS | low polyreactivity
QVQLVESGGGLVQAGGSHRLSCAASGRIFVKYAMGWYRQAPGKERELVAAITKSGSSTYYADSVKGRFTISRDNAKITVYLQMNSLKPEDTAVYYCAALTISRSRTGYYWGQGTQVTVSS | low polyreactivity
QVQLVESGGGLVQAGGSLRLSCAASGRTFSPYAMGWYRQAPVKERELVAAITSGGRTNYADSVKGRFTISRDNAKNTVYLQMNSLKPEDTAVYYCAARSGRYRWTRFDYWGQGTQVTVSS | low polyreactivity
QVQLVESGGGLVQAGGSLRLSCAASGRTFSYYTMGWYRQAPGKERDLVAGIRSAGSTYYADSVKGRFTISRDNAKNTVYLLMNSLKPEDTAVYYCAARPYGGGRRSIYYYWGQGTQVTVSS | high polyreactivity
QVQLVESGGGLVQAGFSLRLSCAASGSILGSYVMGWCRQAPGKESELVAASSYSTSATYYADSVKGRFTISRDNAKNTVYLQMNSLKPEDPAVYYCNADLGSWYTWYDDWGQGTQVTVSS | high polyreactivity
QVQLVESGGGLVQAGGSLRLSCAASGRIFYFNVMGWYRQAPGKVRELVAAIRWSVGTTYYADSVKGRFTISRDNAKNTVYLQMNSLKPEDTAVYYCAARRSFPLGTARMYYWGQGTQVTVSS | high polyreactivity
QVQLVEAGRGLVQAGGSLRLSCAASGRTIDHYAMGWYRQAPGKERELVAAMSPTGGSTYYADSVKGRFTISRDNAKNSVYLQMNSLKPEDTAVYYCNARYYFYSATVDRYYHFYYWGQGTQVTVSS | high polyreactivity
QVQLVESGGGLVQAGASLRLSCAASGIILHYYAMGGYRQAPGKERELVAAISARGGRTYYADSVKGRFTISRDNAKNTVYLQMNSLKPEDTAVYYCARYLRRSSPSPGYGYWGQGTQVTVSS | high polyreactivity
QVQLVESGGGLVQAGGSLRLSCAASGSIFYTNAMGWYRQATGKERELVAVITASGGSTYYADSVKGRFTISRDNAKNTVYLQMNSLKPEDTAVYYCAADPVFNYDYWGQGTQVTVSS | low polyreactivity
QVQLVESGGRLVQAGGSLRLSCAASGRTFRSHTKGWYRKAPGKERELVAAIIIGGSTYYADTVKGRFTISRDNAKNTVYLQMNSLKPEDSAVYYCARFYRYSRDYWGQGTQVTVSS | high polyreactivity

Sequence | polyreactivity (PSR sort gate)
QVQIVESGGGLVQAGGSLRISCAASGFIFNRYAMGWYRQAPGTERELVADITGGSTYFADSVKGRFTISRDNAKNTVYLLMKSLKPEDTAVYYCAADVLRISTLLFRGPGFDYWGQGTQVTVSS | low polyreactivity
QVQLVESGGGLFQAGGSLRLSCAASGRTFISNPMGWYRQAPGKVWEMVASITSGGSTNYADSVKGRFTISRDNAKNSVYVHMYSQNREDTAVYYCAAEGLVVGWTEEDYWGQGTQVTVSS | low polyreactivity
QVQLVESGGGLVQAGGSLRLSCAASGSIFNANAMGWYRQAPGKEWELVARITRGGRTNYADSVKGRFTISRDNAKNTVYLQMNSLKPEDTAVYYCAAVYYVGFPHKYDYWGQGTQVNVSS | low polyreactivity
QVQLVESGGGLVQAGGSLRLSCAASGITFGRYALGWYRQAPGKERELVATITVNGGRTYYADSVKGRFTISRDNAKNTVYLQMNSLKPEDTAVYYCAAERRNSYVLLFKYNYWGQGTQVTVSS | low polyreactivity
QVQLVESGGGLVQAGGSLRLSCAASGSTFPPYAMGRYRQAPGKERELVAAIDWSDGTTYYADSVKGRFTISRDYAKNTVYLQMNSLKPEDTAVYYCAGSLSQSEYDYWGQGTQVTVSS | low polyreactivity
QVQLVESGGGLVQAGGSLRLSSSASGGTFWDYAMGCYRQAPGKERELVAAINWSGDSTYADSVKGRFTISRDNAKNTCYLQMTSLKPEDTAVYYCNADVWYYRMDYWGQGTQVTVSS | low polyreactivity
QVQLVESGGGLVQAGGSLRLSCAASGSTFVRYAMGWYRQAPGKERELVAAIDGGGTTKYADSVKGRFTISRDNAKNTVYLQMNSLKPEDTSVYYCAADQVWGYDSWGQGTQVTVSS | low polyreactivity
QVQLVESGGGLVQAGGSLRLSCAASGLTFAGNAMGWSRQAPGTERELVAAITWTGDRTYYADSVKGRFTISRDNAKNTVYLQMNCLKPEDTAVYYCAAQVRSLYSPGWYYYWGQGTQVTVSS | high polyreactivity
QVQLVESGGGLVQAGGSLRLSCAASGRIFRTYAMGWYRQAPGKERELVAAISYSGGSTFYADSVKGRFTISRDNAKNSVYLQMNSLKPESTAVYYCAADSRAKRYYWGQGTQVTVSS | high polyreactivity
QVQLVESGGGLVQAGGSLLLSCAASGSTFVVNAMAWYRQAPGKERELVAAIRNSGSTTYADSVKGRFTISRDNAKNTVYLQMNSLKPEDTAVYYCATDISATVTAVQINPYDYWGQGSQVTVSS | low polyreactivity
QVQLVESGGGLVQAGGSLRLSCAASGRIFTIYAMGWSRQAPGKERELVAAITVSTGSTYYADSVKGRFTISRDNAKNTVYLQMKSLKPEDTAVYYCAKRGQSYTYRRYDYWGQGTQVTVSS | low polyreactivity
QLQLVESCGGLFQAGGSLRLSCADSGSTFGDHAMGCYRQAPGKERELVAVITSDTSTYYADSLKWRLTISRDNAKNTVYLQMNSMKPEDTAVYYCAADWGGLWFWYEYWGQGTQVTVSS | low polyreactivity
QVQLVESGGGLVQAGGSLRLSCAASGSIFRINGMGCYRQAPGKERELVADITGGGSTYYADSVKGRFTISRDNAKNTVYLHMNSLKPEDTAVYYCAKDYYRSYGREDYWGQGTQVTVSS | low polyreactivity
QVQLVESGGGLVQAGGSLRLSCAASGSIFWSYAMGWYRQAPGKERELVAAITWSGGNTYADSVKGRFTISRDNAKNTVYLQMNSLTPEDTAVYYCAAYPAHGTKWYVYPSHDDYWGQGTQVNVSS | low polyreactivity
QVQLVESGGGLVQAGGSLRLSCAASGITLPYYAMGWYRQAPGKERELVAGISSRGGSTYYADSVKGRFTISRDNAKNTVYLQMNSLKPEDTAVYYCAAKVASTRLGPAYGYWGQGTQVTVSS | high polyreactivity
QVQLVESGGGLVQAGGSLRLICAASGFIYSYYAMGWYRQAPGKERELVAVISGSGGGTYYAVSVKGRFRISRDNAKNTVYLQMNSLKPEDTAVYDFAARNSGGTTKYYYWGQGTQVTVSS | high polyreactivity
QVQLVESGGGLDQEGGSLRLSCAASGSTFAVHVMGWYRHAPGKERELVATITYRDGRTYYADSVKGRFTISRDNANNTVYLQMNSLKPEDTAVYYCAADWYTTYDYWGQGTQVTVSS | low polyreactivity
QVQLVESGGGLVQAGGSLRLSCAASGRIYDYMAWYRQAPGKERELVAAISWRGGRTYYADSVKGRFTISRDNAKNTVYLQMNSLKPEDTAVYYCAAKTTYRYGYWGQGSQVTVSS | high polyreactivity
QVQLVESGGGLVQAGGSLRLSCAASGRIGVNAMGWYRPAPGKERELVAAITGGASTYYADSVKGRFTISRDNAKNTVYLQMNSLKPEDTAVYYCNATGEYFGYLDLDYDYWGQGTQVTVSS | low polyreactivity
QVQHVESGGGLVQAGGSLRLSCAASGSILGGNAMGWYRQAPGKERELVADISGSGDSTYYADSVKGRFTISRDNAKNTVYLQMNSLKPEETAVYYCAVDYDSYWYGTYVNEYDYWGQGTQVTVSS | low polyreactivity
QFQLVESGGGLVQAGGSLRLSCADSVRTLYRNVMVWYRHAPVKERELVAAISLSGGSTYYEDSVKGRFTISRDNANYTVYLQMNSMKPEYTAVYYCAVKRPYCPGEYGYWGQGTQVTVSS | high polyreactivity
